Measurements: US20050079613A1 (OREGON HEALTH AND SCIENCE UNIVERSITY, published 2005)

Target: the molecule itself
Assay: anti-Flag immunoprecipitation from metabolically labeled HeLa cells, SDS-PAGE and anti-Flag western blot
Description: HeLa cells were grown to 80% confluency in 100 mm tissue culture dishes and transfected as above. At 24 hours post-infection, cells were incubated in serum-free and methionine-free medium for 30 minutes, and metabolically labeled with ³⁵S-cysteine/³⁵S-methionine (300 μCi/plate, Amersham) for 2 hr. After labeling, cells were washed twice with PBS and lysed immediately in PBS containing 1% Digitonin and protease inhibitors (Roche, Indianapolis, Ind.). The cell lysate was precleared with protein A/G agarose beads overnight and incubated with 3 μg of antibody for one hour, followed by one hour with protein A/G beads. Immunoprecipated proteins were washed five times with 0.25% Digitonin in PBS. All samples were boiled in Laemmli buffer and analyzed by SDS-PAGE gel electrophoresis. Gels were fixed, dried and exposed to Kodak BioMax MR film. Western blotting was accomplished using the WesternBreeze Chemiluminescent Detection System (Invitrogen), following semi-dry transfer to PVDF membranes (Millipore, Bedford, Mass.).

B1: MARCH-I (enzyme, not shown: small tags and cut ends)
chain: MTSSHVCCNFLNMWKKSKISTMYYLNQDAKLSNLFLQASSPTTGTAPRSQSRLSVCPSTQDICRICHCEGDEESPLITPCRCTGTLRFVHQSCLHQWIKSSDTRCCELCKYDFIMETKLKPLRKWEKLQMTTSERRKIFCSVTFHVIAITCVVWSLYVLIDRTAEEIKQGNDNGVLEWPFWTKLVVVAIGFTGGLVFMYVQCKVYVQLWRRLKAYNRVIFVQNCPDTAKKLEKNFSCNVNTDIKDAVVVPVPQTGANSLPSAEGGPPEVVSV
notes: Whole open reading frame expressed by transfection in HeLa cells; Flag-tagged in the immunoprecipitation; also called MARCHI-Flag; FLJ20668
B1: binds.
